The source of these data is patent US20070048268A1 (ZymoGenetics, published 2007).

The target of the assay is biotinylated murine IL-21 (murine, UniProt Q9ES17 18-146). The assay can be described thus: flow cytometry on MOLT-13, HuT-78, HuT-102, DEL and YT cells, 40 ng/ml to 1000 ng/ml, Streptavidin-PE. On the technique in general: In flow cytometry, cells or beads pass a laser one at a time.

Experimental: Cells were analyzed on a FACSScan using CellQuest software (Becton Dickinson, Mountain View, Calif.).

B1: human IL-21 receptor (receptor)
chain: not shown
notes: also called zalpha11 receptor; zalpha11
For the molecule B1, the binding result was “binds”.
